Results on one substance are retold here after patent US20200181247A1.

The target of the assay is commercially-prepared stable A-beta42 Oligomers (SynAging SAS) (human). Briefly: SPR; antibody covalently immobilized, stable A-beta42 oligomers (1 microM) injected. In general terms: Surface plasmon resonance follows binding to a sensor surface in real time, without labels.
Sequence of commercially-prepared stable A-beta42 Oligomers (SynAging SAS) (human) (peptide, as listed by the source): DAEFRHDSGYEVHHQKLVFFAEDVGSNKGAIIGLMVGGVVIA

With negative control IgG1 (antibody), the binding response units (BRUs), mean is 2.5 BRU.
